Assay results published in patent publication US20260274985A1 (MYTHIC THERAPEUTICS, published 2026).

B1: MYT11586 (antibody, V domains shown)
VH: QVQLQQSGSELKKPGASVKVSCKASGYTFTNYGMNWVKQAPGQGLKWMGWINTYTGEPHYTDDFKGRFAFSLDTSVSTAYLQISSLKADDTAVYFCARGGFGSSYWYFDVWGQGSLVTVSS
VL: DIQLTQSPSSLSASVGDRVSITCKASQDVSIAVAWYQQKPGKAPKLLIYSASYRYTGVPDRFSGSGSGTDFTLTISSLQPEDFAVYYCQQHYITPLTFGAGTKVEIK
notes: Sacituzumab variant, His at HCV position 59 (H2 10)
B2: MYT11607 (antibody, V domains shown)
VH: QVQLQQSGSELKKPGASVKVSCKASGYTFTNYGMNWVKQAPGQGLKWMGWINTYTGEPTYTDDFKGRFAFSLDTSVSTAYLQISSLKADDTAVYFCARGGFGSSYWYFDHWGQGSLVTVSS
VL: DIQLTQSPSSLSASVGDRVSITCKASQDVSIAVAWYQQKPGKAPKLLIYSASYRYTGVPDRFSGSGSGTDFTLTISSLQPEDFAVYYCQQHYITPLTFGAGTKVEIK
notes: Sacituzumab variant, His at HCV position 110 (H3 14)
B3: MYT11587 (antibody, V domains shown)
VH: QVQLQQSGSELKKPGASVKVSCKASGYTFTNYGMNWVKQAPGQGLKWMGWINTYTGEPTHTDDFKGRFAFSLDTSVSTAYLQISSLKADDTAVYFCARGGFGSSYWYFDVWGQGSLVTVSS
VL: DIQLTQSPSSLSASVGDRVSITCKASQDVSIAVAWYQQKPGKAPKLLIYSASYRYTGVPDRFSGSGSGTDFTLTISSLQPEDFAVYYCQQHYITPLTFGAGTKVEIK
B4: MYT11596 (antibody, V domains shown)
VH: QVQLQQSGSELKKPGASVKVSCKASGYTFTNYGMNWVKQAPGQGLKWMGWINTYTGEPTYTDDFKGRFAFSLDTSVSTAYLQISSLKADDTAVYFCARHGFGSSYWYFDVWGQGSLVTVSS
VL: DIQLTQSPSSLSASVGDRVSITCKASQDVSIAVAWYQQKPGKAPKLLIYSASYRYTGVPDRFSGSGSGTDFTLTISSLQPEDFAVYYCQQHYITPLTFGAGTKVEIK
B5: MYT11594 (antibody, V domains shown)
VH: QVQLQQSGSELKKPGASVKVSCKASGYTFTNYGMNWVKQAPGQGLKWMGWINTYTGEPTYTDDFKGRFAFSLDTSVSTAYLQISSLKADDTAVYFCHRGGFGSSYWYFDVWGQGSLVTVSS
VL: DIQLTQSPSSLSASVGDRVSITCKASQDVSIAVAWYQQKPGKAPKLLIYSASYRYTGVPDRFSGSGSGTDFTLTISSLQPEDFAVYYCQQHYITPLTFGAGTKVEIK
notes: Sacituzumab variant, His at HCV position 97 (H3 01)
B6: MYT11595 (antibody, V domains shown)
VH: QVQLQQSGSELKKPGASVKVSCKASGYTFTNYGMNWVKQAPGQGLKWMGWINTYTGEPTYTDDFKGRFAFSLDTSVSTAYLQISSLKADDTAVYFCAHGGFGSSYWYFDVWGQGSLVTVSS
VL: DIQLTQSPSSLSASVGDRVSITCKASQDVSIAVAWYQQKPGKAPKLLIYSASYRYTGVPDRFSGSGSGTDFTLTISSLQPEDFAVYYCQQHYITPLTFGAGTKVEIK
notes: Sacituzumab variant, His at HCV position 98 (H3 02)
B7: MYT11608 (antibody, V domains shown)
VH: QVQLQQSGSELKKPGASVKVSCKASGYTFTNYGMNWVKQAPGQGLKWMGWINTYTGEPTYTDDFKGRFAFSLDTSVSTAYLQISSLKADDTAVYFCARGGFGSSYWYFDVWGQGSLVTVSS
VL: DIQLTQSPSSLSASVGDRVSITCHASQDVSIAVAWYQQKPGKAPKLLIYSASYRYTGVPDRFSGSGSGTDFTLTISSLQPEDFAVYYCQQHYITPLTFGAGTKVEIK
notes: Sacituzumab variant, His at LCV position 24 (L1 01)
B8: MYT11609 (antibody, V domains shown)
VH: QVQLQQSGSELKKPGASVKVSCKASGYTFTNYGMNWVKQAPGQGLKWMGWINTYTGEPTYTDDFKGRFAFSLDTSVSTAYLQISSLKADDTAVYFCARGGFGSSYWYFDVWGQGSLVTVSS
VL: DIQLTQSPSSLSASVGDRVSITCKHSQDVSIAVAWYQQKPGKAPKLLIYSASYRYTGVPDRFSGSGSGTDFTLTISSLQPEDFAVYYCQQHYITPLTFGAGTKVEIK
notes: Sacituzumab variant, His at LCV position 25 (L1 02)
B9: MYT11592 (antibody, V domains shown)
VH: QVQLQQSGSELKKPGASVKVSCKASGYTFTNYGMNWVKQAPGQGLKWMGWINTYTGEPTYTDDFHGRFAFSLDTSVSTAYLQISSLKADDTAVYFCARGGFGSSYWYFDVWGQGSLVTVSS
VL: DIQLTQSPSSLSASVGDRVSITCKASQDVSIAVAWYQQKPGKAPKLLIYSASYRYTGVPDRFSGSGSGTDFTLTISSLQPEDFAVYYCQQHYITPLTFGAGTKVEIK
B10: MYT11589 (antibody, V domains shown)
VH: QVQLQQSGSELKKPGASVKVSCKASGYTFTNYGMNWVKQAPGQGLKWMGWINTYTGEPTYTHDFKGRFAFSLDTSVSTAYLQISSLKADDTAVYFCARGGFGSSYWYFDVWGQGSLVTVSS
VL: DIQLTQSPSSLSASVGDRVSITCKASQDVSIAVAWYQQKPGKAPKLLIYSASYRYTGVPDRFSGSGSGTDFTLTISSLQPEDFAVYYCQQHYITPLTFGAGTKVEIK
B11: MYT11590 (antibody, V domains shown)
VH: QVQLQQSGSELKKPGASVKVSCKASGYTFTNYGMNWVKQAPGQGLKWMGWINTYTGEPTYTDHFKGRFAFSLDTSVSTAYLQISSLKADDTAVYFCARGGFGSSYWYFDVWGQGSLVTVSS
VL: DIQLTQSPSSLSASVGDRVSITCKASQDVSIAVAWYQQKPGKAPKLLIYSASYRYTGVPDRFSGSGSGTDFTLTISSLQPEDFAVYYCQQHYITPLTFGAGTKVEIK
notes: Sacituzumab variant, His at HCV position 63 (H2 14)
B12: MYT11605 (antibody, V domains shown)
VH: QVQLQQSGSELKKPGASVKVSCKASGYTFTNYGMNWVKQAPGQGLKWMGWINTYTGEPTYTDDFKGRFAFSLDTSVSTAYLQISSLKADDTAVYFCARGGFGSSYWYHDVWGQGSLVTVSS
VL: DIQLTQSPSSLSASVGDRVSITCKASQDVSIAVAWYQQKPGKAPKLLIYSASYRYTGVPDRFSGSGSGTDFTLTISSLQPEDFAVYYCQQHYITPLTFGAGTKVEIK
B13: MYT11602 (antibody, V domains shown)
VH: QVQLQQSGSELKKPGASVKVSCKASGYTFTNYGMNWVKQAPGQGLKWMGWINTYTGEPTYTDDFKGRFAFSLDTSVSTAYLQISSLKADDTAVYFCARGGFGSSHWYFDVWGQGSLVTVSS
VL: DIQLTQSPSSLSASVGDRVSITCKASQDVSIAVAWYQQKPGKAPKLLIYSASYRYTGVPDRFSGSGSGTDFTLTISSLQPEDFAVYYCQQHYITPLTFGAGTKVEIK
B14: MYT11593 (antibody, V domains shown)
VH: QVQLQQSGSELKKPGASVKVSCKASGYTFTNYGMNWVKQAPGQGLKWMGWINTYTGEPTYTDDFKHRFAFSLDTSVSTAYLQISSLKADDTAVYFCARGGFGSSYWYFDVWGQGSLVTVSS
VL: DIQLTQSPSSLSASVGDRVSITCKASQDVSIAVAWYQQKPGKAPKLLIYSASYRYTGVPDRFSGSGSGTDFTLTISSLQPEDFAVYYCQQHYITPLTFGAGTKVEIK
B15: MYT11591 (antibody, V domains shown)
VH: QVQLQQSGSELKKPGASVKVSCKASGYTFTNYGMNWVKQAPGQGLKWMGWINTYTGEPTYTDDHKGRFAFSLDTSVSTAYLQISSLKADDTAVYFCARGGFGSSYWYFDVWGQGSLVTVSS
VL: DIQLTQSPSSLSASVGDRVSITCKASQDVSIAVAWYQQKPGKAPKLLIYSASYRYTGVPDRFSGSGSGTDFTLTISSLQPEDFAVYYCQQHYITPLTFGAGTKVEIK
notes: Sacituzumab variant, His at HCV position 64 (H2 15)
B16: MYT11598 (antibody, V domains shown)
VH: QVQLQQSGSELKKPGASVKVSCKASGYTFTNYGMNWVKQAPGQGLKWMGWINTYTGEPTYTDDFKGRFAFSLDTSVSTAYLQISSLKADDTAVYFCARGGHGSSYWYFDVWGQGSLVTVSS
VL: DIQLTQSPSSLSASVGDRVSITCKASQDVSIAVAWYQQKPGKAPKLLIYSASYRYTGVPDRFSGSGSGTDFTLTISSLQPEDFAVYYCQQHYITPLTFGAGTKVEIK
notes: Sacituzumab variant, His at HCV position 101 (H3 05)
B17: MYT11601 (antibody, V domains shown)
VH: QVQLQQSGSELKKPGASVKVSCKASGYTFTNYGMNWVKQAPGQGLKWMGWINTYTGEPTYTDDFKGRFAFSLDTSVSTAYLQISSLKADDTAVYFCARGGFGSHYWYFDVWGQGSLVTVSS
VL: DIQLTQSPSSLSASVGDRVSITCKASQDVSIAVAWYQQKPGKAPKLLIYSASYRYTGVPDRFSGSGSGTDFTLTISSLQPEDFAVYYCQQHYITPLTFGAGTKVEIK
notes: Sacituzumab variant, His at HCV position 104 (H3 08)
B18: MYT11588 (antibody, V domains shown)
VH: QVQLQQSGSELKKPGASVKVSCKASGYTFTNYGMNWVKQAPGQGLKWMGWINTYTGEPTYHDDFKGRFAFSLDTSVSTAYLQISSLKADDTAVYFCARGGFGSSYWYFDVWGQGSLVTVSS
VL: DIQLTQSPSSLSASVGDRVSITCKASQDVSIAVAWYQQKPGKAPKLLIYSASYRYTGVPDRFSGSGSGTDFTLTISSLQPEDFAVYYCQQHYITPLTFGAGTKVEIK
notes: Sacituzumab variant, His at HCV position 61 (H2 12)

molecular target: T1, Human TROP2 Protein, His Tag (Acro Biosystems) (human, UniProt P09758 27-274); test: BLI (Octet)
T1 construct: Bought protein; not shown: His tag
T1 sequence (looked up): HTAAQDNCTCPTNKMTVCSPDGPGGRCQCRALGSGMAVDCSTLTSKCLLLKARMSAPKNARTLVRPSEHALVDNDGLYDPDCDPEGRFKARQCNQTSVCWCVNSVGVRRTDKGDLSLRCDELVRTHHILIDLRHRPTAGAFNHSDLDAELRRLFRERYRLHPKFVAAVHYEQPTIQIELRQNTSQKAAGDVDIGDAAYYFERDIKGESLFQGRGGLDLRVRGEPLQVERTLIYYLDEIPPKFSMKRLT
Protocol: After allowing for four days of protein expression, cell culture supernatants were collected, quantified by SDS-PAGE analysis (DNS), and the pH dependence of the variant was evaluated using biolayer interferometry (BLI) on an Octet RED 96e instrument. Briefly, cell culture supernatants were diluted based on qualitative expression level of the variant determined by visual examination of SDS-PAGE gels, 5 μL of cell culture supernatant was diluted into 195 μL of 1×PBST, pH 7.4 for high expressors, 25 μL of cell culture supernatant was diluted into 175 μL of 1×PBST, pH 7.4 for medium expressors and 100 μL of cell culture supernatant was diluted into 100 μL of 1×PBST, pH 7.4 for low expressors for loading onto the sensor tips. The resulting diluted supernatants were then captured on an anti-human Fc sensor (Forte Bio). A baseline was established using 1×PBST (50 mM Potassium Phosphate Buffer+150 mM NaCl+0.05% Tween 20) pH 7.4, and the sensor was associated with 50 nM of TROP2 (Human TROP2 Protein, His Tag, Acro Biosystems) in 1×PBST pH 7.4 for 120 sec to generate an association curve. In the dissociation phase, the antibody-antigen complex on the sensor was exposed to 1×PBST pH 7.4 or pH 5.4, for 300 sec. Association and dissociation phase curves were examined for the starting ABPC antibody (with no substitutions) and each corresponding antibody variant at pH 5.4 and pH 7.4 to inform on two criteria: a) enhanced dissociation (i.e., higher koff values) at pH 5.4 due to histidine or alanine substitution compared to the starting ABPC, (with no substitutions), and b) reduced dissociation at pH 7.4 (i.e., lower koff values) compared to pH 5.4 in the antibody variant itself and with the starting ABPC (with no substitutions). […] It was also noted that while some mutations obliterated TROP2 binding, others were tolerated with little or n change in TROP2 binding kinetics.

Binder	binding result
B1	binds
B2	binds
B3	binds
B4	binds
B5	binds
B6	binds
B7	binds
B8	binds
B9	binds
B10	binds
B11	binds
B12	binds
B13	binds
B14	binds
B15	binds
B16	binds
B17	binds
B18	binds
